Measured values reported in US20150352207A1, “USE OF ANTIBODIES AGAINST ICAM-1 IN COMBINATION WITH AN ANTI CANCER DRUG IN THE TREATMENT OF PATIENTS” (BIOINVENT INTERNATIONAL AB, priority 2013, published 2015).
“Also recorded” adds a separate entry of the source.

How the values were obtained:
EJM myeloma cells = assay: Subcutaneous scid myeloma xenograft, EJM; format: in vivo, scid mice; details: 2 mg/kg twice weekly
Protocol: (§1) Antibody treatment with 2 mg/kg B11 or control IgG1 was started at Day 1 and was continued on a twice-weekly intraperitoneal dosing regimen. Mice were sacrificed when tumor sizes reached the ethical limit.

RPMI-8226 myeloma cells [1] = assay: Subcutaneous scid myeloma xenograft, RPMI-8226; format: in vivo, scid mice; details: 2 mg/kg twice weekly
Protocol: as §1

OPM-2 myeloma cells = assay: Subcutaneous scid myeloma xenograft, OPM-2 (ICAM-1 negative); format: in vivo, scid mice; details: 2 mg/kg twice weekly
Protocol: as §1

RPMI-8226 myeloma cells [2] = assay: Advanced disseminated RPMI-8226 multiple myeloma model; format: in vivo, SCID mice; details: for survival: B11 2 mg/kg i.v. twice weekly for 8 weeks
Protocol: ARH-77 cells or RPMI-8226 were injected intravenously into the SCID mice. (A) ARH-77 model. Animals received intravenous injections with antibody at 2 mg/kg or bortezomib (Velcade) at 0.5 mg/kg on Days 7, 10, 13, and 16 (as indicated by arrows in the graph). (B) RPMI-8226-model. B11 or control mAb was administered i.v at 2 mg/kg, twice weekly for 8 weeks, bortezomid, at 1 mg/kg, once weekly for 8 weeks, lenalidomide p.o with 2 mg/kg for 2 cycles consisting of 5 days of treatment and 2 days of wash out, melphalan i.v at 3 mg/kg, once weekly for 8 weeks, and dexamethasone (DXH) at 6 mg/kg/inj 3 times/week for 2 consecutive weeks. There were 6-10 mice per treatment group. Statistical significance was calculated using Log-rank Graphpad Prism software and determined at ***p<0.001. (C) To study the ICAM-1 level on human cells, the cells from different organs were stained and gated for CD38+/mCD45−/B11+. Left panel indicates the percentage of B11 positive cells in CD38+/mCD45 population and right panel the mean fluorescent intensity of the positive cells.
The anti-myeloma effect of B11 was examined in a disseminated model of multiple myeloma. The early and advanced disseminated model of multiple myeloma was performed at Oncodesign, Dijon, France. Briefly: 1×10^6 (early) or 5×10^6 (advanced) ARH-77 tumor cells in 200 μL of RPMI 1640 were injected intravenously (i.v) into the caudal vein of female scid mice (D0). Tumor cell injections were performed twenty four to forty eight hours after a whole body irradiation of mice (1.8 Gy, ^60Co, INRA, BRETENNIERES). The treatment was started at D5 RPMI-8226 model or D7 (ARH-77 model) […]. B11 or control mAb was administered i.v. at 2 mg/kg, twice weekly for 8 weeks, bortezomib, at 1 mg/kg, once weekly for 8 weeks, lenalidomide p.o with 2 mg/kg for 2 cycles consisting of 5 days of treatment and 2 days of wash out, melphalan i.v. at 3 mg/kg, once weekly for 8 weeks, and dexamethasone at 6 mg/kg 1 injected 3 times a week for 2 consecutive weeks.
200 μl containing 10×10^6 of RPMI 8226 tumour cells was intravenously injected into the caudal vein of female SCID mice. The mice had been subjected to a whole body irradiation of mice (1.8 Gy, ^60Co, BioMEP) 24 to 72 hours prior to cell injection. At D1, tumor injected mice were randomized according to their individual body weight. All treatment started day 5 after tumor cell administration except for ALKERAN®, which started at day 10. All treatments were injected in a dose volume of 10 ml/kg/inj. Mice received one of the following treatments:
Monoclonal anti-ICAM mAb or control mAb was administered i.v in a PBS solution containing at 2 mg/kg, 2 times/week for 8 consecutive weeks. […]

human FcγRIIIa = biological target: T1, human FcγRIIIa (Homo sapiens, UniProt P08637); assay: B11 isotype variant binding to FcγR (Biacore), human FcγRIIIa
T1 construct: made in house; host or cells: HEK293E (transient, adherent)
Protocol: His-tagged human FcγRIIIa or mouse FcγRIV were expressed transient in adherent HEK293E cells, purified using Ni-NTA chromatography and characterized using SDS-PAGE and/or Biacore. Surface plasmon resonance (SPR) measurements were performed using a Biacore 3000 instrument. Goat α-human-F(ab)′2 F(ab)′2 fragment (Jackson laboratories) was immobilised with a CM-5 chip using a standard amine coupling protocol. IgG1 B11, IgG4 B11, or 297Q B11 were diluted to 15 and 60 μg/mL respectively and added to the surface at […] for 3 min. His tagged human FcγRIIIa or mouse FcγRIV were pre-incubated with an α-HIS antibody (R&D Systems) at a 2:1 molar ratio before addition to the chip surface, 30 μL/min, 1 min. After each cycle the surface was regenerated twice with glycine buffer pH 1.7.

recombinant human ICAM-1 = recombinant human ICAM-1 (Homo sapiens, UniProt P05362); assay: ELISA binding to recombinant human ICAM-1, ICAM-2 or ICAM-3; details: versus ICAM-2, ICAM-3
ARH-77 tumors = assay: Advanced (established, palpable tumors) scid/ARH-77 xenograft model; details: IgG B11 effective even at 100-fold lower dose (0.2 mg/kg) than rituximab
Protocol: Mice were anaesthetized with a mixture of sevofluran and oxygen prior to myeloma cell inoculation and 1-5×10^6 myeloma cells were then subcutaneously injected in a volume of 100 μl into the left flank. Treatment with antibodies by intraperitonial (i.p.) injections was started either the day after cell inoculation (prophylactic model) or when tumors reached a size of approximately 100 mm^3 (established model). Antibodies were administrated in PBS in a total volume of 200 μL. Treatment with PBS or isotype control was used as control. Tumors were measured with a digital calliper and the tumor volumes were calculated according to formula: width^2×length×0.52. Animals were sacrificed when the tumor sizes reached the ethical limit of 1.5 cm. Surviving mice were sacrificed after a maximum of 5 months. Blood samples collected from the vena cava were centrifuged at 2500 g for 15 min to obtain serum and the samples were stored at −20° C. Tumors were removed for immunohistochemistry, snap frozen and were kept at −85° C.

Chain of recombinant human ICAM-1 (P05362 28-532): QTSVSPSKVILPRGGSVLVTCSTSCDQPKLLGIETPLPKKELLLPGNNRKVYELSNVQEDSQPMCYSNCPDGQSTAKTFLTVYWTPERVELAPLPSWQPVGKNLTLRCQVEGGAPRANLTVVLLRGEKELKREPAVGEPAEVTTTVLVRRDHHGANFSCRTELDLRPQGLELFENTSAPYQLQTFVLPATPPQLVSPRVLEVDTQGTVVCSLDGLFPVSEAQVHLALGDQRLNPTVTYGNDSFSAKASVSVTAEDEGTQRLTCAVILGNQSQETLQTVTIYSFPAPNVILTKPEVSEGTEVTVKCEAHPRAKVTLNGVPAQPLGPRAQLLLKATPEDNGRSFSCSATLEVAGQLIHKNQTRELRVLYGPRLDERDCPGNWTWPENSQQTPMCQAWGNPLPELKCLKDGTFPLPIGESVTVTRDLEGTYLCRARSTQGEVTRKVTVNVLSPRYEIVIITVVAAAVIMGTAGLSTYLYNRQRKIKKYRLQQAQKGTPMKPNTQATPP
T1 sequence (P08637 17-254): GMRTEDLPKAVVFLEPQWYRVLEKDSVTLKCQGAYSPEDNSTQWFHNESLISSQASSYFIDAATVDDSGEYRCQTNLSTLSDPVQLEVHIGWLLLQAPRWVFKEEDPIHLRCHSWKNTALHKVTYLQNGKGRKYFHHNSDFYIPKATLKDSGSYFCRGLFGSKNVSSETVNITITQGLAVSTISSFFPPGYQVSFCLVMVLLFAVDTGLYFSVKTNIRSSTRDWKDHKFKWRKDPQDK

B1: IgG B11: novel human ICAM-1 antibody targeting the B11 epitope, isolated from the naïve antibody library n-CoDeR (antibody, V domains shown)
VH: EVQLLESGGGLVQPGGSLRLSCAASGFTFSNAWMSWVRQAPGKGLEWVAFIWYDGSNKYYADSVKGRFTISRDNSKNTLYLQMNSLRAEDTAVYYCARYSGWYFDYWGQGTLVTVSS
VL: QSVLTQPPSASGTPGQRVTISCTGSSSNIGAGYDVHWYQQLPGTAPKLLIYDNNNRPSGVPDRFSGSKSGTSASLAISGLRSEDEADYYCQSYDSSLSAWLFGGGTKLTVLG
modifications: B11 antibody variable H region; B11 antibody variable L region
EJM myeloma cells
  reduction of myeloma tumor growth: 98%
RPMI-8226 myeloma cells [1]
  reduction of myeloma tumor growth: 96%
OPM-2 myeloma cells
  effect on tumor growth: no effect on tumor growth; also recorded: did not affect tumor growth
RPMI-8226 myeloma cells [2]
  survival: significantly enhanced survival; also recorded: trend towards improved survival in IgG B11 treated mice compared to mice treated with the immunomodulatory drug revlimid
RPMI-8226 myeloma cells [2]; listed as B11, 2 mg/kg
  survival: significantly enhances survival; also recorded: highly improved survival
RPMI-8226 myeloma cells [2]; listed as anti ICAM-1 mAb
  survival: more effective compared to other SOC single therapies
RPMI-8226 myeloma cells [2]; B11 2 mg/kg i.v. twice weekly, compared to bortesomib and dexamethasone
  disease onset: delayed disease onset
Human FcγRIIIa
  binding to human FcγRIIIa: bound to human FcγRIIIa
Recombinant human ICAM-1
  specificity for ICAM-1: high specificity
ARH-77 tumors
  animal survival: prolonged animal survival
  tumor growth: significantly prevented tumor growth
